The text below walks through data of patent publication US20230080224A1 (AGENCY FOR SCIENCE TECHNOLOGY AND RESEARCH, published 2023).

Experiment [1] concerns the target T1, human ALPPL2 expressed on cells (human, UniProt P10696 20-503).
T1 construct: whole, on cells; also called placental-like alkaline phosphatase
The experiment in a line: immunohistochemistry on FFPE ALPPL2+ve cell lines and tumor tissues. As to the method: To enable development of a companion diagnostic, the IHC activity of the antibodies was evaluated (FIG. 5). Antigen retrieval by Proteinase-K digestion, but not heat mediated antigen retrieval, enabled detection. C36, C45 and C130 enabled detection in ALPPL2+ve cell lines (SCH) and formalin fixed paraffin embedded (FFPE) human tumor tissues by IHC. […] This is also indicative the optimal therapeutic window of these antibodies in the clinic.

The target in experiment [2] is T2, human ALPPL2 (recombinant protein) (human, UniProt P10696 20-503, limits assumed).
T2 construct: biotinylated where captured on streptavidin
The experiment in a line: screen of rabbit B-cell clones by ELISA and FACS. An excerpt: (§1) Specific clones were screened and identified by ELISA and high throughput flow cytometry (FIG. 3). Rabbit kidney cells were transfected with either truncated (for ELISA screen) or full-length (for FACS screen) ALPI and ALPPL2.
Background: In an ELISA, binding on a coated surface is turned into a signal by an enzyme label.

Experiment [3] addresses T3, ALPI (screening and SPR/ELISA protein) (UniProt P09923 20-503, limits assumed).
T3 sequence (looked up): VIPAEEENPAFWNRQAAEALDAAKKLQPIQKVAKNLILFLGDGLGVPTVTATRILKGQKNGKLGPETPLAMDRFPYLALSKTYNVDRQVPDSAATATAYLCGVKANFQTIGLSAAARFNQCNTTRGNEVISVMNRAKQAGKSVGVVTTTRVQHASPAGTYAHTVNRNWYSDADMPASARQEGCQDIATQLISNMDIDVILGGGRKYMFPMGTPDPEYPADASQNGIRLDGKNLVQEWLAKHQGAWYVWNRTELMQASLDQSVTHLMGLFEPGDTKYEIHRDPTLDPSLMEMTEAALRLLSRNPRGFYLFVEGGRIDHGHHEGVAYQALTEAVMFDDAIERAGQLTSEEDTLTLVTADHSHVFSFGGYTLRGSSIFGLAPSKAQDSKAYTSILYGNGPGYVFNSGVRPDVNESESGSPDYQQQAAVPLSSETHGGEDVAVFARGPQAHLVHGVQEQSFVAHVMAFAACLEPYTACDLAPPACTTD
The experiment in a line: screen of rabbit B-cell clones by ELISA and FACS.
Source text: as §1

Experiment [4] has as its target T4, human ALPPL2 (recombinant protein) (human, UniProt P10696 20-503).
T4 chain: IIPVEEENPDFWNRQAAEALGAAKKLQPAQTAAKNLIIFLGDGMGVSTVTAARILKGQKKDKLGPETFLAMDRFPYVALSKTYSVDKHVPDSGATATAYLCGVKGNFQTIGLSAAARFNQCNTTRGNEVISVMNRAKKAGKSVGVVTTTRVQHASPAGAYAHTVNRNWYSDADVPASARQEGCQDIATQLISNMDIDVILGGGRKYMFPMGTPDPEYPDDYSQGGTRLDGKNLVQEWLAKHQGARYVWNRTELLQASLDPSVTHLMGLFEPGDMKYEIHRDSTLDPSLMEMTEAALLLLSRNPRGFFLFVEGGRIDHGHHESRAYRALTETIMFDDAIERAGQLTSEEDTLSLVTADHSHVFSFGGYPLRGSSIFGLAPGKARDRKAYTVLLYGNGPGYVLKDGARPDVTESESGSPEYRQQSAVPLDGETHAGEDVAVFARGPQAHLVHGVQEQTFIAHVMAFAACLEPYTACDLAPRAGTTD
The experiment in a line: BLI; single concentration. (Biolayer interferometry detects binding as a change in optical thickness at a sensor tip.)

Experiment [5] concerns the target T2, human ALPPL2 (recombinant protein). In words: SPR, Biacore T200, ligand captured by streptavidin on CM5 chip, antibody as analyte. As to the method:
(§2) Select clones (C4, C15, C131, C12, C18, C36 and C53) were humanized by grafting the CDRs to a human IgG1 framework. […] Surface plasmon resonance was studied using Biacore T200. Ligands (e.g. ALPPL2 or ALPP) were immobilized on biosensors CM5 chips captured with the streptavidin. Ligands-loaded sensors were then incubated with different concentrations of analyte (recombinant expressed humanized antibody clones) to measure affinity.

For experiment [6], the target named is human ALPP (recombinant protein) (human, UniProt P05187 23-506, limits assumed). The description is as above. As to the method:
as §2

The target in experiment [7] is T4, human ALPPL2 (recombinant protein). In words: SPR. In general terms: SPR reads the build-up and loss of mass on a sensor chip optically.
Experiment [8] concerns the target T5, human ALPP (recombinant protein) (human, UniProt P05187 23-506).
T5 chain: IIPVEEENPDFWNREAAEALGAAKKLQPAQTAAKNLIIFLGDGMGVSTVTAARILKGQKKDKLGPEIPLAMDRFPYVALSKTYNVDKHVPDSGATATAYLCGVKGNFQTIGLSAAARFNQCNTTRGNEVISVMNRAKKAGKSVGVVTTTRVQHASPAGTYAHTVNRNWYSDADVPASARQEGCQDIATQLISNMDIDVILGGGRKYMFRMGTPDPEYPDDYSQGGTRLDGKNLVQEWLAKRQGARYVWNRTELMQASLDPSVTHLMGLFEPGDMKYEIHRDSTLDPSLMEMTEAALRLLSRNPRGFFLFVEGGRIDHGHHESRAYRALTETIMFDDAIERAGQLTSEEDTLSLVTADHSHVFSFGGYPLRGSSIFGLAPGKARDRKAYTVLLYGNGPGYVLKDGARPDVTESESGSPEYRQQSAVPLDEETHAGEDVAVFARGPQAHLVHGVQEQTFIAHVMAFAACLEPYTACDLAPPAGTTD
The experiment in a line: SPR.

The target in experiment [9] is T6, human ALPL expressed on cells (human, UniProt P05186 18-501).
T6 construct: whole, on cells
T6 sequence (looked up): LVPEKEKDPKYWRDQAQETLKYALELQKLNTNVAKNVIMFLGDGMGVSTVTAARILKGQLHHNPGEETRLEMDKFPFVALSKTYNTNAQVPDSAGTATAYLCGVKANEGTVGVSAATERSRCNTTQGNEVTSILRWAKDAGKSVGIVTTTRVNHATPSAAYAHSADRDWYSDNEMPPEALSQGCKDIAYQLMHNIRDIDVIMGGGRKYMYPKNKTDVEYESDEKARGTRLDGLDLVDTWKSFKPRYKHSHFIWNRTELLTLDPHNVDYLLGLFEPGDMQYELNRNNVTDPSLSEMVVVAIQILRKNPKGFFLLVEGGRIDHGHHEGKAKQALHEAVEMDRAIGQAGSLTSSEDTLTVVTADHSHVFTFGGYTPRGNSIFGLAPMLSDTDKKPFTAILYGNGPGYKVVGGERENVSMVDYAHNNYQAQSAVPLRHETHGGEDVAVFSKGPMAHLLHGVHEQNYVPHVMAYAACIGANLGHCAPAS
The experiment in a line: FACS on transiently transfected 293T cells (FIG. 13A).

Experiment [10] deals with T7, human ALPI expressed on cells (human, UniProt P09923 20-503).
T7 construct: whole, on cells
T7 sequence (looked up): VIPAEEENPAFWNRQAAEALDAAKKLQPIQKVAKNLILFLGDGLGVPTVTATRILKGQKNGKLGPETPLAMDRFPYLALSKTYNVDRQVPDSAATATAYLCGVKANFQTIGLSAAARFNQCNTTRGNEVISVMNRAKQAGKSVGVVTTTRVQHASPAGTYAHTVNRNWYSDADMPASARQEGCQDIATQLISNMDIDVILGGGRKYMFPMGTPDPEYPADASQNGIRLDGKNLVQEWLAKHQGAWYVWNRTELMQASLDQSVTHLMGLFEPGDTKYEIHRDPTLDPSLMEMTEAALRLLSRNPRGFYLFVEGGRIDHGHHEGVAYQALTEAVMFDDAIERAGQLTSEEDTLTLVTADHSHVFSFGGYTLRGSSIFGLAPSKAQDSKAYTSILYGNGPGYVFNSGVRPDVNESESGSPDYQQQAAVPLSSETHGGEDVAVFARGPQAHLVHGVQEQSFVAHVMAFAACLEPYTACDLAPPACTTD
The description is as above.

The target of experiment [11] is T8, human ALPP expressed on cells (human, UniProt P05187 23-506).
T8 construct: whole, on cells
In words: FACS (FIG. 13).

Experiment [12] addresses T1, human ALPPL2 expressed on cells. In words: FACS (FIG. 13).

B1: AB1C45 (antibody, V domains shown)
VH: QERLEESGGGLVQPEGSLTLTCTASGFSFSSSYYMCWVRQAPGKGMEWIGCIYTGNDDTWYASWAKGRFTVSKTSSTTVTLQMTSLTATDTATYFCARGLSPIDLWGPGTLVTVSS
VL: IVMTQTPSSKSVPVGDTVTINCQASESIYNNNNLGWYQQKPGQPPKLLIYWASTLASGVPSRFKGSGSGTQFTLTISDVECDDAATYYCAGYKSRTTDGSAFGGGTEVVVK
notes: Rabbit antibody cloned from a single B cell
Regarding B1, the figures for the binding result in [1], in experiment [2] and in experiment [3] were “binds”, “binds” and “no binding”, respectively.

B2: AB2C130 (antibody, V domains shown)
VH: QSLEESGGDLVKPGASLTLTCTASGFSFSSGYWICWVRQAPGKGLEWIACIYTGVGATYYASWAKGRFTISKTSSTTVTLQMTSLTAADTATYFCARDFGGSSGFYFNLWGPGTLVTVSS
VL: FELTQTPSSVEAAVGATVTIKCQASQSISNALAWYQQKPGQPPKLLIYSASTLESGVPSRFKGSGSGTEFTLTISDLECADAATYYCQNYYGSTSSSYGVAFGGGTEVVVK
notes: as for B1
As for B2, the binding result in [1] was “binds”; in [2], “binds”; in experiment [3], “no binding”. Besides, in [4], the Kd came to 0.001 nM.

B3: AB1C36 (antibody, V domains shown)
VH: QSLEESGGDLVKPGASLTLTCTASGFSFSSGYNICWVRQAPGKGLELIACIYTSSSGSTYYASWAKGRFTISKTSSTTVTLQMTSLTVADTATYFCARGEAYYAYGYVGYAYYHGAFDPWGPGTLVTVSS
VL: DIVMTQTPASVEAGVGGTVTIKCQASHSISKYFSWYQQKIGQPPKLLIYEASTLASGVPSRFKGSGSGTQFTLTISDLECADAATYYCQSYYYGTSSSYAFGGGTEVVVK
notes: as for B1
B3: the binding result is “binds” in [1], “binds” in [2] and “no binding” in [3]. Besides, the Kd in [4] turned out to be 1.6 nM.

B4: humanized C15 (antibody, human IgG1, V domains shown)
VH: EVQLVESGGGLVQPGGSLRLSCAASGFSFSSSYYMCWVRQAPGKGLEWIACIYTTYGGTWYASWAKGRFTISRDNSKNTLYLQMNSLRAEDTAVYYCARSSISDVTYFNLWGQGTLVTVSS
VL: DIQMTQSPSSLSASVGDRVTITCQASQSISNYLAWYQQKPGKVPKLLIYRASTLESGVPSRFSGSGSGTDFTLTISSLQPEDVATYYCQSYYDNNNYAFGQGTKVEIK
notes: CDRs grafted to a human IgG1 framework; recombinant; also called hC15
In the case of B4, the binding result in [5] and in experiment [6] was “binds” in each case.

B5: humanized C18 (antibody, human IgG1, V domains shown)
VH: EVQLVESGGGLVQPGGSLRLSCAASGFSFSSYWTCWVRQAPGKGLEWLGCTDGGSSGDTYYATWAKGRFTISRDNSKNTLYLQMNSLRAEDTAVYYCARNLITWDLWGQGTLVTVSS
VL: DIQMTQSPSSLSASVGDRVTITCQASESVYNNNQLSWYQQKPGKVPKLLIYWASKLASGVPSRFSGSGSGTDFTLTISSLQPEDVATYYCAGYKSSITDGNAFGQGTKVEIK
notes: CDRs grafted to a human IgG1 framework; recombinant; also called hC18
As for B5, the equilibrium dissociation constant (Kd) is 0.144 nM in experiment [7] and 0.526 nM in experiment [8]. The binding result in [5] and in experiment [6] was “binds” in each case.

B6: humanized C12 (antibody, human IgG1, V domains shown)
VH: EVQLVESGGGLVQPGGSLRLSCAASGFSFSSSYWISWVRQAPGKGLEWIACIAIGSSGTTYYASWAKGRFTISRDNSKNTLYLQMNSLRAEDTAVYYCARSGDGYTYVELWGQGTLVTVSS
VL: DIQMTQSPSSLSASVGDRVTITCQASQSISSYLAWYQQKPGKVPKLLIYRASTLASGVPSRFSGSGSGTDFTLTISSLQPEDVATYYCQNYYDIDDSDNTFGQGTKVEIK
notes: CDRs grafted to a human IgG1 framework; recombinant; also called hC12
For the molecule B6, the values for the Kd in [7] and in [8] were 0.08 nM and 0.235 nM, respectively. The binding result in experiment [5] and in [6] was “binds” each time.

B7: humanized C4 (antibody, V domains shown)
VH: EVQLVESGGGLVQPGGSLRLSCAASGFTISNNYWICWVRQAPGKGLEWIGCIATGDGSTYYASWAKGRFTISRDNSKNTLYLQMNSLRAEDTAVYYCARGAAGSSWTTYFDFWGQGTLVTVSS
VL: DIQMTQSPSSLSASVGDRVTITCQAGQNIDNYLSWYQQKPGKVPKLLIYRASTLASGVPSRFSGSGSGTDFTLTISSLQPEDVATYYCQNNNGGSTFTGFPFGQGTKVEIK
notes: CDRs grafted to a human IgG1 framework; recombinant; also called hC4
B7: the binding result in [9] is reported as “no binding”; in experiment [10], “no binding”; in [5] it was “binds”; in experiment [6], “binds”; in experiment [11] it was “binds”; in experiment [12] it was “binds”. In addition, the equilibrium dissociation constant (Kd) in experiment [7] stood at 0.014 nM; in experiment [8] it was 0.0001 nM.

A word on the Kd: it is the constant that tells how readily two partners part at equilibrium.
